Laboratory results from patent publication US20190322724A1 (RESEARCH FOUNDATION FOR THE STATE UNIVERSITY OF NEW YORK, published 2019).

Target: T1, endogenous secreted MMP-2 in conditioned media of SYF and SYF+c-Src mouse embryonic fibroblast cells (mouse (endogenous protein of mouse …, UniProt P33434 30-662, limits assumed))
T1 construct: also called endogenous secreted MMP-2 in SYF CM
Assay: Ni-NTA pulldown from SYF CM, immunoblot
Protocol: Pulldown and co-pulldown experiments were performed from CM and immunoblots were followed. […] Data represent three independent experiments.
Equal amounts of isolated cell extract proteins were incubated with HisPur Ni-NTA Resin (ThermoScientific) for 2 hours at 4° C. Immunopellets were washed 4 times with fresh lysis buffer (20 mM HEPES pH 7.0, 100 mM NaCl, 1 mM MgCl2, 0.1% NP40, protease inhibitor cocktail (Roche) and PhosSTOP (Roche)). […] Pulldowns were also performed using conditioned media concentrated ˜10× using Amicon Ultra 10K centrifugal filters (Millipore) according to the manufacturer's protocol. HiPur Ni-NTA Resin was used to pulldown His6-tagged TIMP-2 from concentrated conditioned media. Briefly, HisPur Ni-NTA Resin was washed 3 times by vortexing resin with 0.1% NP40 lysis buffer and pipetting off supernatant. Concentrated conditioned media was combined with washed HisPur Ni-NTA Resin, and placed on rotator at 4° C. for 1 hour. Wash step was repeated 4 times with 1% NP40 buffer+150 mM NaCl to reduce non-specific binding of proteins to resin. 5× protein loading buffer was added to resin and boiled for 5 minutes.

T1 sequence (P33434 30-662 limits assumed): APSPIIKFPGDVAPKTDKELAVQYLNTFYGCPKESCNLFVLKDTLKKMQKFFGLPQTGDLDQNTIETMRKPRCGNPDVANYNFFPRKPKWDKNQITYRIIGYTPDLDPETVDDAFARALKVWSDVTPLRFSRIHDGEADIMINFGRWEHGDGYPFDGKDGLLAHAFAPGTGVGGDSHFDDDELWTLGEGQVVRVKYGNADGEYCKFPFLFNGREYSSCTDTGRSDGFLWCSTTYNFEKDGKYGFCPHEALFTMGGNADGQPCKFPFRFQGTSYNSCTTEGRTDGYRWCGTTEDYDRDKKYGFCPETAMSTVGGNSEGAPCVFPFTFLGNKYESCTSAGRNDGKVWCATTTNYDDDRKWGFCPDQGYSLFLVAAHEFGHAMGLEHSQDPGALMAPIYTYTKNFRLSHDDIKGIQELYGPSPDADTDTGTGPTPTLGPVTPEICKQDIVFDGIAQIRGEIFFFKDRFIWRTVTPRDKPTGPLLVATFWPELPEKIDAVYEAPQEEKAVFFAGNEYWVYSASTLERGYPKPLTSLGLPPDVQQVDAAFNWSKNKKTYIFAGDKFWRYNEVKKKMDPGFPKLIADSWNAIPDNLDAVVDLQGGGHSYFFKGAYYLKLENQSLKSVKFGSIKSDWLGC

- binding result: no binding
B1: TIMP-2 Y62F/Y90F/Y165F-His6 (other)
chain: CSCSPVHPQQAFCNADVVIRAKAVSEKEVDSGNDIFGNPIKRIQYEIKQIKMFKGPEKDIEFIFTAPSSAVCGVSLDVGGKKEYLIAGKAEGDGKMHITLCDFIVPWDTLSTTQKKSLNHRYQMGCECKITRCPMIPCFISSPDECLWMDWVTEKNINGHQAKFFACIKRSDGSCAWYRGAAPPKQEFLDIEDPHHHHHH
notes: also called TF; triple F mutant
